Assay results published in patent US20210069342A1 (LEGOCHEM BIOSCIENCES, published 2021).

How the values were obtained:
[1] = target: T1, human ROR1 expressed on the cell surface (human, UniProt Q01973 30-937); assay: flow cytometry on MC38-human ROR1 cells, IgG titrated, FITC anti-human Fc detection, MFI ratio to 2nd Ab alone; log axis whose first tick is printed 0
T1 construct: whole, on cells; also called cell surface-expressed ROR1 antigen; ROR1 on JeKo-1, Mino, CHO-human ROR1, MC38-human ROR1 and other cancer cell lines
Source text: For this experiment, using cell lines (FIG. 5 and FIG. 7, respectively) transiently (CHO-human ROR1, CHO-human ROR2, CHO-mouse ROR1) or stably (MC38-human ROR1) transfected with ROR1 gene to achieve artificial over-expression of ROR1 protein, an ROR1-expressing cell line (JeKo-1, Mino) (FIG. 6), a non ROR1-expressing cell line (MCF7) (FIG. 6) and a FACSCalibur (BD Biosciences) device was used to measure the degree to which anti-ROR1 antibody and ROR1 were bound, as follows. […] JeKo-1, Mino, CHO-human ROR1, CHO-mouse ROR1 and MC38-human ROR1 are all cell lines which express human ROR1 or mouse ROR1.
Specifically, after dissociating each cell line and washing in PBS, the number of cells was counted and adjusted to 2×10⁵ cells/200 PBS. Then the respective ROR1 monoclonal antibodies prepared in Embodiment 3 were diluted 5 times from 10 /mL or 10 /mL, then reacted for 1 hour at 4° C. After the reaction, the cells were washed in PBS, then FITC-marked constant region (Fc) specific antibody (Goat anti-human IgG FITC conjugate, Fc specific, Sigma, F9512, concentration 20 mg/ml) was suspended in 2 /1×10⁵ cells/200 PBS and reacted for 1 hour at 4° C. As for identification of the degree of expression of the transiently over-expressed human ROR1, human ROR2 and mouse ROR1, a commercially available FACS analysis antibody (anti-ROR1: R&D Systems, FAB 2000G, anti-ROR2: R&D, FAB20641P) was used. After reacting the cells were washed in PBS and analyzed using a FACSCalibur device. The negative control (2nd Ab) was only treated with FITC-marked constant region (Fc) specific antibody. The shifted readings for the respective experimental groups treated with ROR1 monoclonal antibody were compared against the shifted reading for the control group (MFI Ratio: MFI of anti-ROR1/MFI of 2nd Ab).

[2] = target: T1, human ROR1 expressed on the cell surface; assay: flow cytometry on MKN-28 cells (gastric cancer), C2E3 IgG, FITC anti-human Fc detection
Procedure: (§1) FACS analysis (FACSCalibur, BD Biosciences) was used to analyze the binding of the anti-ROR1 antibody of the present invention to ROR1 in the above cell lines.
(§2) Specifically, the respective cell lines were dissociated and washed in PBS, then the numbers of cells were counted and adjusted to 2×10⁵ cells/200 PBS. Then, they were treated with 10 /mL of the antibody of clone name C2E3 of the ROR1 monoclonal antibodies prepared in Embodiment 3, and reacted for 1 hour at 4° C. After the reaction, the cells were washed in PBS, then FITC-marked constant region (Fc) specific antibody (Goat anti-human IgG FITC conjugate, Fc specific, Sigma, F9512, concentration 20 mg/ml) was suspended in 2 /1×10⁵ cells/200 PBS and reacted for 1 hour at 4° C. After reacting, the cells were washed with PBS and analyzed with the FACSCalibur equipment. The negative control was only treated with FITC-marked constant region (Fc) specific antibody. To compare the degree of ROR1 expression among the respective cancer cell lines, the quotient of dividing the shifted readings for the experimental group treated with the ROR1 monoclonal antibody (C2E3) of the present invention by the shifted readings for the control group (MFI Ratio: MFI of anti-ROR1/MFI or 2nd Ab) is indicated.

[3] = target: T1, human ROR1 expressed on the cell surface; assay: flow cytometry on JeKo-1 cells (MCL), C2E3 IgG, FITC anti-human Fc detection
Procedure: as §1, §2

[4] = target: T1, human ROR1 expressed on the cell surface; assay: flow cytometry on DLD-1 cells (colon cancer), C2E3 IgG, FITC anti-human Fc detection
Procedure: as §1, §2

[5] = target: T1, human ROR1 expressed on the cell surface; assay: flow cytometry on Mino cells (MCL), C2E3 IgG, FITC anti-human Fc detection
Procedure: as §1, §2

[6] = target: T2, human ROR2 over-expressed on CHO cells (CHO-human ROR2) (human, UniProt Q01974 34-943); assay: flow cytometry on CHO-S cells transiently over-expressing human ROR2, FITC anti-human Fc detection, MFI ratio to 2nd Ab alone
T2 construct: whole, on cells; Negative control; also called family protein human ROR2

[7] = target: T1, human ROR1 expressed on the cell surface; assay: flow cytometry on H460 cells (lung cancer), C2E3 IgG, FITC anti-human Fc detection
Procedure: as §1, §2

[8] = target: T1, human ROR1 expressed on the cell surface; assay: flow cytometry on NCI-H1975 cells (lung cancer), C2E3 IgG, FITC anti-human Fc detection
Procedure: as §1, §2

[9] = target: T1, human ROR1 expressed on the cell surface; assay: flow cytometry on HT29 cells (colon cancer), C2E3 IgG, FITC anti-human Fc detection
Procedure: as §1, §2

[10] = target: T1, human ROR1 expressed on the cell surface; assay: flow cytometry on 697 cells (ALL), C2E3 IgG, FITC anti-human Fc detection
Procedure: as §1, §2

T1 sequence (Q01973 30-937): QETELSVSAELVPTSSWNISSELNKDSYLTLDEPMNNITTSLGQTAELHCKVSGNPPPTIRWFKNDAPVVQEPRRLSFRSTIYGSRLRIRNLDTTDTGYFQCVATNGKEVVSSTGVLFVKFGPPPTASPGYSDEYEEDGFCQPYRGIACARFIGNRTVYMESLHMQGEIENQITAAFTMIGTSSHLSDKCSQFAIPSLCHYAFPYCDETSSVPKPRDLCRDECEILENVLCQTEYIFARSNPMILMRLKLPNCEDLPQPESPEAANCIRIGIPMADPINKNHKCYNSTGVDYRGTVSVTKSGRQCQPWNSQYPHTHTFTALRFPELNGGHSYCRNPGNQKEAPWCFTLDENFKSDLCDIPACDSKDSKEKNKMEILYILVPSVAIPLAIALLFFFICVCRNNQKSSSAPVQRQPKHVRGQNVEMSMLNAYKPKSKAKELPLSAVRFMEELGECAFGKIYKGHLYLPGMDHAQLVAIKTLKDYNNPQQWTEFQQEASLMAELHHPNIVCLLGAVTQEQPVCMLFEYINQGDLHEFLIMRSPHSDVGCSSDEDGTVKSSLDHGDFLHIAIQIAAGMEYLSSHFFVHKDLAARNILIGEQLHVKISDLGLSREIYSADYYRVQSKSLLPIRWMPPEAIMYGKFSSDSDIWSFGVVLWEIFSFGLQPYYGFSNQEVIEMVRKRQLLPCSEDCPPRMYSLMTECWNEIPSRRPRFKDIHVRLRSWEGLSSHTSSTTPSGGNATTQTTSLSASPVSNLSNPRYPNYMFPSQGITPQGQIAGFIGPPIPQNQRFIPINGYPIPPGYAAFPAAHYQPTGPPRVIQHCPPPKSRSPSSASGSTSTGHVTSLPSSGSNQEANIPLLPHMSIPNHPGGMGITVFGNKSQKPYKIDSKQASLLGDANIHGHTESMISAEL
T2 sequence (Q01974 34-943): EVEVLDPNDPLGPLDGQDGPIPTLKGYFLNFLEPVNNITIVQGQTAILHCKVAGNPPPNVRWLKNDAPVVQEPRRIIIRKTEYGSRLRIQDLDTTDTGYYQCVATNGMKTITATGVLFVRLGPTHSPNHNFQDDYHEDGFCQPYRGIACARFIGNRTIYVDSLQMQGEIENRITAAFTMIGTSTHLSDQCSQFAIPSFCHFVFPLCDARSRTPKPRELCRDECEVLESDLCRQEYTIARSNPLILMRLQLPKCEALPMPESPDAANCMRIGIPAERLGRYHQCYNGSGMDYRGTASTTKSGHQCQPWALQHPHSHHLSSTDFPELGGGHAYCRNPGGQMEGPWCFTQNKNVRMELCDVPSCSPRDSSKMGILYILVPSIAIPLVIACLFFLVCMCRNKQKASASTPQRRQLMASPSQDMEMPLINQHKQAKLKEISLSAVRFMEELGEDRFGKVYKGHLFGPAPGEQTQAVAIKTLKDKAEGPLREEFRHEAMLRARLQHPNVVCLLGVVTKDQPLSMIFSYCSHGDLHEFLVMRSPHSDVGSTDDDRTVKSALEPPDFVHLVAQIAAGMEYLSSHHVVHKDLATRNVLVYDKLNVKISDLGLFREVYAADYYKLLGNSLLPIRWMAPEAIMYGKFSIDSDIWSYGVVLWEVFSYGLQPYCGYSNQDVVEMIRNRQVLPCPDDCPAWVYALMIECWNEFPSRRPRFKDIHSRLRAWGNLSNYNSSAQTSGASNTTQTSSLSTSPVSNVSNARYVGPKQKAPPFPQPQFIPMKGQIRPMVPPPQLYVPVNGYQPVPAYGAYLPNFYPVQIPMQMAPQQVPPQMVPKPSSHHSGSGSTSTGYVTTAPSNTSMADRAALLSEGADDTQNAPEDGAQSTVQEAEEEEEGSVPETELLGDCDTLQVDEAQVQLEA

B1: anti-ROR1 IgG antibody C2E3 (antibody, V domains shown)
VH: EVQLLESGGGLVQPGGSLRLSCAASGFTFSNYAMSWVRQAPGKGLEWVSSISHNSGSTYYADSVKGRFTISRDNSKNTLYLQMNSLRAEDTAVYYCAKFISARKSLGRSYSNGMDVWGQGTLVTVSS
VL: QSVLTQPPSASGTPGQRVTISCTGSSSNIGSNDVTWYQQLPGTAPKLLIYADSKRPSGVPDRFSGSKSGTSASLAISGLRSEDEADYYCGTWDYSLSGYVFGGGTKLTVLG
notes: Full IgG form (human IgG1 constant region, lambda light chain), expressed in CHO-S cells
EC50 (read off the curve) [1]: ~100 ng/mL
Mean Fold Ratio (MFI of anti-ROR1 / MFI of 2nd Ab) [2]: 4.9
Mean Fold Ratio (MFI of anti-ROR1 / MFI of 2nd Ab) [3]: 4
Mean Fold Ratio (MFI of anti-ROR1 / MFI of 2nd Ab) [4]: 17.6
Mean Fold Ratio (MFI of anti-ROR1 / MFI of 2nd Ab) [5]: 7.2
binding result [6]: no binding
Mean Fold Ratio (MFI of anti-ROR1 / MFI of 2nd Ab) [7]: 10.9
Mean Fold Ratio (MFI of anti-ROR1 / MFI of 2nd Ab) [8]: 4.2
Mean Fold Ratio (MFI of anti-ROR1 / MFI of 2nd Ab) [9]: 3.9
Mean Fold Ratio (MFI of anti-ROR1 / MFI of 2nd Ab) [10]: 12
